Measurements reported in IntAct's records for PubMed 20925060.

B1: Chaperonin GroEL 2 (Mycobacterium tuberculosis (strain ATCC 25618 / P9WPE7 (parent)
chain: MAKTIAYDEEARRGLERGLNALADAVKVTLGPKGRNVVLEKKWGAPTITNDGVSIAKEIELEDPYEKIGAELVKEVAKKTDDVAGDGTTTATVLAQALVREGLRNVAAGANPLGLKRGIEKAVEKVTETLLKGAKEVETKEQIAATAAISAGDQSIGDLIAEAMDKVGNEGVITVEESNTFGLQLELTEGMRFDKGYISGYFVTDPERQEAVLEDPYILLVSSKVSTVKDLLPLLEKVIGAGKPLLIIAEDVEGEALSTLVVNKIRGTFKSVAVKAPGFGDRRKAMLQDMAILTGGQVISEEVGLTLENADLSLLGKARKVVVTKDETTIVEGAGDTDAIAGRVAQIRQEIENSDSDYDREKLQERLAKLAGGVAVIKAGAATEVELKERKHRIEDAVRNAKAAVEEGIVAGGGVTLLQAAPTLDELKLEGDEATGANIVKVALEAPLKQIAFNSGLEPGVVAEKVRNLPAGHGLNAQTGVYEDLLAAGVADPVKVTRSALQNAASIAGLFLTTEAVVADKPEKEKASVPGGGDMGGMDF
partner: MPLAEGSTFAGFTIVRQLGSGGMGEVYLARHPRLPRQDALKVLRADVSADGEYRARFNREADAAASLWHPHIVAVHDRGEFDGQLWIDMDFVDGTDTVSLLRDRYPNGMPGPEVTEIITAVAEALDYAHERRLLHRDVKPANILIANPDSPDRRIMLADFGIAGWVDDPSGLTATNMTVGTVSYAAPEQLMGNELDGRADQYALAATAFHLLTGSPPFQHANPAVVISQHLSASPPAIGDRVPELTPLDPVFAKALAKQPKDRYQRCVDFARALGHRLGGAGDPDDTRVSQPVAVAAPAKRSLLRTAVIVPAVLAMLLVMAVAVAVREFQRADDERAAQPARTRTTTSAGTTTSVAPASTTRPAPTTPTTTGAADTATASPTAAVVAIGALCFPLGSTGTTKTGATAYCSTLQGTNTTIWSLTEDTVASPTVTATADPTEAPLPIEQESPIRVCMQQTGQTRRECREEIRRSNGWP
B2: Alpha-crystallin (Mycobacterium tuberculosis (strain ATCC 25618 / P9WMK1 (parent)
chain: MATTLPVQRHPRSLFPEFSELFAAFPSFAGLRPTFDTRLMRLEDEMKEGRYEVRAELPGVDPDKDVDIMVRDGQLTIKAERTEQKDFDGRSEFAYGSFVRTVSLPVGADEDDIKATYDKGILTVSVAVSEGKPTEKHIQIRSTN
partner: B1 partner

Variants of: B1
Conditions: with pknf_myctu pknF
For T92A, the “effect of a mutation on the interaction” value was “decreasing interaction”. For T90A, the “effect of a mutation on the interaction” value was “decreasing interaction”. With T127A the “effect of a mutation on the interaction” value was “decreasing interaction”.

Variants of: B2
Conditions: with pknf_myctu pknF
For MATTLPVQRHPRSLFPEFSELFAAFPSFAGLRPTFDTRLMRLEDEMKEGRYEVRAELPGVDPDKDVDIMVRDGQLTIKAERTEQKDFDGRSEFAYGSFVRTVSLPVGADEDDIKATYDKGILTVSVAVSEGKPAEKHIQIRSTN, the “effect of a mutation on the interaction” value was “decreasing interaction”. MATTLPVQRHPRSLFPEFAELFAAFPSFAGLRPTFDTRLMRLEDEMKEGRYEVRAELPGVDPDKDVDIMVRDGQLTIKAERTEQKDFDGRSEFAYGSFVRTVSLPVGADEDDIKATYDKGILTVSVAVSEGKPTEKHIQIRSTN was tested, and the “effect of a mutation on the interaction” value was “decreasing interaction”. In the case of MATTLPVQRHPRSLFPEFSELFAAFPAFAGLRPTFDTRLMRLEDEMKEGRYEVRAELPGVDPDKDVDIMVRDGQLTIKAERTEQKDFDGRSEFAYGSFVRTVSLPVGADEDDIKATYDKGILTVSVAVSEGKPTEKHIQIRSTN, the “effect of a mutation on the interaction” value is reported as “decreasing interaction”. For MATALPVQRHPRSLFPEFSELFAAFPSFAGLRPTFDTRLMRLEDEMKEGRYEVRAELPGVDPDKDVDIMVRDGQLTIKAERTEQKDFDGRSEFAYGSFVRTVSLPVGADEDDIKATYDKGILTVSVAVSEGKPTEKHIQIRSTN, the “effect of a mutation on the interaction” value was “decreasing interaction”.
